For series [1], the target named is eYFP-CP2c WT with SUMO2 conjugation. The series is described as follows: FRET. To be noted: in vitro, n = 3, parent: est. 13, read off a plot.
Series [2] concerns the target eYFP-CP2c WT with SUMO3 conjugation. The series is described as follows: FRET. Conditions: in vitro; eYFP-CP2c conjugated with SUMO3 (lane 12); n = 3; parent: est. 13; read off a plot.
Series [3] deals with eYFP-CP2c WT with SUMO conjugation (SUMO1), Q9ERA0;P63165. The series is described as follows: FRET. Conditions: in vitro; eYFP-CP2c conjugated with SUMO1 (lane 6); n = 3; parent: est. 75; read off a plot.
The target in series [4] is PSME3 WT-dTomato with SUMO2 conjugation, P61289;P61956. Briefly: FRET. Conditions: in vitro; PSME3-dTomato conjugated with SUMO2 (lane 7); n = 3; parent: est. 21; read off a plot.
For series [5], the target named is PSME3 WT-dTomato with SUMO1 conjugation, P61289;P63165. The series is described as follows: FRET. Conditions: in vitro; PSME3-dTomato conjugated with SUMO1 (lane 6); n = 3; parent: est. 55; read off a plot.
Series [6] deals with PSME3 WT-dTomato with SUMO3 conjugation, P61289;P55854. Briefly: FRET. To be noted: in vitro; PSME3-dTomato conjugated with SUMO3 (lane 8); n = 3; parent: est. 24; read off a plot.
Series [7] concerns the molecule itself. The series is described as follows: cross-linking + co-IP; DSP XL-IP: live transfected cells crosslinked with 2 mM DSP in PBS 3 hours on ice, lysed, immunoprecipitated, Western blot with or without DTT; cells arrested at G2-M with MG132 (Fig. 4G). (A western blot detects proteins with antibodies after separation by electrophoresis.)

With “PSME3 WT-dTomato (non-SUMOylated) (from UniProt P61289) K6R; K12R; K14R; K110R; K123R; K243R”, the response in series [1] (eYFP-CP2c conjugated with SUMO2 (lane 11)) turned out to be 9%; in series [2], 7%.
On to “PSME3 WT-dTomato (non-SUMOylated) (from UniProt P61289) SIM m70 (ILLTN→IRRTN) + SIM m115 (LVDII→RKDII)”, for which the values for the response in series [1] (eYFP-CP2c conjugated with SUMO2 (lane 7)) and in series [3] were 16% and 11%, respectively.
Turning to “eYFP-CP2c WT (non-SUMOylated) (from UniProt Q9ERA0) SIM m158: VGVID→KGKID”, the results for the response in series [4], in series [5] and in series [6] were 9%, 7% and 12%, respectively.

B1: Flag-tagged CP2c WT (natural protein, mouse, UniProt Q9ERA0 1-502, looked up)
chain: MAWALKLPLADEVIESGLVQDFDASLSGIGQELGAGAYSMSDVLALPIFKQEESSLPPDNENEILPFQYVLCAATSPAVKLHDETLTYLNQGQSYEIRMLDNRKLGELPELNGKLVKSIFRVVFHDRRLQYTEHQQLEGWRWNRPGDRILDIDIPMSVGVIDPRANPTQLNTVEFLWDPSKRTSVFIQVHCISTEFTMRKHGGEKGVPFRVQIDTFKENGNGEYTEHLHSASCQIKVFKPKGADRKQKIDREKMEKRTPHEKEKYQPSYETTILTECSPWPEITYVNNSPSPGFNSSHSSFSLGEGNGSPNHQPEPPPPVTDNLLPTTTPQEAQQWLHRNRFSTFTRLFTNFSGADLLKLTRDDVIQICGPADGIRLFNALKGRMVRPRLTIYVCQESLQLREQQPQPQPQPQKQEDGDSNGTFFVYHAIYLEELTAVELTEKIAQLFSISPHQISQIYKQGPTGIHVVISDEMVQNFQEEACFILDTMEAETSDSYHVILK
notes: CP2c (Tfcp2), mouse cDNA, in pcDNA3-Flag; In cells part of it is SUMO1-conjugated at K50; also called Flag-CP2c; source: 293T, transfected, in lysate
Turning to B1, the “stoichiometry N” value in series [7] is 2.

Broadly, the stoichiometry N is a count of units in the complex or per binding partner.
